The values that follow come from PMC3167627.

The data set concerns the target Mcm2WT-7 (Mcm2-7) (Saccharomyces cerevisiae, UniProt P29469;P24279;P30665;P29496;P53091;P38132 1-868;1-971;1-933;1-775;1-1017;1-845). Put plainly: EMSA. Background: A gel shift assay detects complexes by their altered migration in electrophoresis.

B1: poly-dT60 (ssDNA)
DNA: TTTTTTTTTTTTTTTTTTTTTTTTTTTTTTTTTTTTTTTTTTTTTTTTTTTTTTTTTTTT
As to B1, the binding result is listed as “binds”.
